# Results taken from US7127357 (SALK INSTITUTE FOR BIOLOGICAL STUDIES, dated 2006).
# Non-standard residues stand in square brackets, D forms with d. No end group written: not given here. pT = C[C@@H](OP(=O)(O)O)[C@H](N)C(=O)O; pS = N[C@@H](COP(=O)(O)O)C(=O)O
# Biological target: T1, isolated PPIase domain of human Pin1 (human, UniProt Q13526 50-163)
# T1 construct: range 50-163; also called Pin1 PPIase domain
# Test: fluorescence anisotropy, rhodamine-labeled peptide
# T1 sequence (Q13526 50-163 limits assumed): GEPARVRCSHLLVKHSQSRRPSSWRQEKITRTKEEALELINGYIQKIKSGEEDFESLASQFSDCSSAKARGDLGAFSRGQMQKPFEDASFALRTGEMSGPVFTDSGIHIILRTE
row,Binder,binding result
1,"VPR[pT]PV (also: tetramethylrhodamine label on an amine, Six-residue peptide derived from human Cdc25c) [VPRpTPV (Cdc25c-T48), rhodamine-labeled]",no binding
2,"PPA[pT]PP (also: tetramethylrhodamine label on an amine, Six-residue peptide derived from human Myt1) [PPApTPP (Myt1-T412), rhodamine-labeled]",no binding
3,"PPG[pS]PP (also: tetramethylrhodamine label on an amine, Six-residue peptide derived from human Myt1) [PPGpSPP (Myt1-S416), rhodamine-labeled]",no binding
4,"STS[pT]PR (also: tetramethylrhodamine label on an amine, Six-residue peptide derived from human Myt1) [STSpTPR (Myt1-T455), rhodamine-labeled]",no binding
